Assay [1] deals with H3K9me2 nucleosomes (individually reconstituted for quantitative measurements). Briefly: MST.
Assay [2] has as its target H3K9me2S28ph nucleosomes (individually reconstituted for quantitative measurements). As to the kind of experiment: MST.
Assay [3] shares this target. Briefly: MST. The source holds these as a separate data set.
The target is the same in assay [4]. As to the kind of experiment: MST. The source holds these as a separate data set.
Assay [5] addresses HP1β (HP1) (UniProt P83916). Briefly: eCFP-HP1 retention on immobilised nucleosome library. The settings on record: reference: H3K9me2 nucleosomes; sites S28.
Assay [6] concerns the target HP1β (HP1) (UniProt P83916). Briefly: eCFP-HP1 retention on H2A + H3 nucleosome library. The settings on record: reference: H3K9me2 nucleosomes; sites S28.

The values below come from publication PMC8163371.

Where two headings read alike, the source gives them in different places.

The term Kd denotes a measure of binding affinity in units of concentration. High values mean weaker binding, low ones tighter binding. On to “HP1 without eCFP tag (human HP1β) (from UniProt P83916 1-185) (natural protein)”, for which the Kd in assay [1] amounted to 2400 nM; in assay [2] it was 1800 nM; in assay [3], 1700 nM; in assay [4], 600 nM. In addition, the fold stronger binding than the H3K9me2 nucleosome on 187 bp DNA in assay [4] turned out to be 2 fold.
histone H3 H3K9me2S28ph nucleosomes: in assay [5], the “other: fold enrichment over unmodified H3 nucleosomes” value is “stronger; reference 4.8”. Further, in assay [6], the fold change came to 2.3 fold.
